# Molecular target: OdinSepF (Candidatus Odinarchaeota)
# Assay: SEC-MALS
substance,measurement,value
OdinSepF (natural protein),stoichiometry N,2

# Reference: publication doi:10.1101/2025.02.03.636245
